The Human Domainome abundance scans (Beltran et al. 2025)

B1: Gamma-crystallin S, residues 96 to 176; numbered along this chain, P22914 (parent)
chain: IQIFEKGDFSGQMYETTEDCPSIMEQFHMREIHSCKVLEGVWIFYELPNYRGRQYLLDKKEYRKPIDWGAASPAVQSFRRI
B2: Chromodomain-helicase-DNA-binding protein 5, residues 411 to 463; numbered along this chain, Q8TDI0 (parent)
chain: EEDDHMEFCRVCKDGGELLCCDACPSSYHLHCLNPPLPEIPNGEWLCPRCTCP

Variants of: B1
Experiment: abundance fitness (aPCA) (normalised: wild type 0, dead -1); higher = more abundant; growth selection in yeast, the domain comes from the species named
Conditions: Homo sapiens

Abundance fitness, by site and new letter:
F4: S -0.113, R -0.945, D -0.971, H -0.017, Q -0.868, W -0.067, V -0.906, A -0.275, C -0.008, I -0.987, T -0.585, P -0.967, K -0.193, N -0.231, Y -0.094, E -1.16, G -0.414, M -0.045
I1: R -1.07, F 0.011, S -0.973, G -1.18, A -0.239, V 0.05, H 0.005, T -0.191, C 0.104, W -1.16, K -0.732, L -0.154, N -0.968
I3: M -0.018, E -1, S -0.931, R -0.703, N -0.627, H -0.777, P -1.2, Q -1.08, Y -0.286, L -0.02, C -0.029, T -0.185, K -1.12, G -0.716, F 0.031, W -0.047, A -0.141, D -0.705
Q2: P -0.876, Y -0.099, T -0.066, G 0.035, K 0.022, A -0.075, V -0.041, N 0.124, R 0.027, S 0.039, C 0.027, I 0.221, D -0.053, F 0.17, M -0.077, W 0.003, H 0.088
E5: K -0.007, M 0.028, P -0.01, I 0.014, G -0.02, H -0.041, C -0.022, L 0.013, N -0.062, D -0.05, F 0.057

Variants of: B2
Experiment: as above
Conditions: Homo sapiens

Abundance fitness: each site, then its substitutions
P38: I -0.564
L46: V -0.017, Q -0.063, S 0.061
C21: K -0.641, N -1.03, I -1.13, V -0.932, L -0.999, M -1.08, S -0.883
R49: N 0.013, L -0.094, C 0.021, T 0.112, P -0.106, M 0.017, Y -0.088
P41: Q -0.051, S 0.047, I -0.159, D 0.246
C47: I -0.009, E -0.853, Q -0.192, G -0.533, A -0.542, F -0.318, L -0.716
D3: F 0.357, G 0.105, I 0.36, Q 0.105
L19: W -0.288, V -0.031, E -0.346, F 0.001, R -0.078, Q -0.155, C -0.317
H29: M -0.87, R -0.741, G -0.825, T -1.14, W -1.25, L -0.528
C50: K -0.598, I -0.751, D -0.4, R -0.686, A -0.628, Y -0.568
P35: I -0.183, Y -0.476
S27: D -0.3, A 0.07
N42: F -0.266, E -0.022, C 0.033, R -0.052, D -0.028, H -0.054, M -0.137
I40: Y -0.059, V -0.027, N 0.063
P53: R -0.669
S26: W -0.37, E 0.011, N 0.167, V 0.02, H -0.008, G -0.036
K13: R -0.068, Y -0.368, E 0.142, M -0.18
D14: E 0.059, Q -0.2
L33: A -0.171, K -0.699, G -0.554, P -0.496, D -0.344, N -0.971
E39: P 0.139, M -0.113, F -0.235, A 0.006, D -0.203
